Series [1] has as its system breast cancer cell lines MCF-7, MDA-MB-231, ZR-75-1. Put plainly: Resazurin cell viability assay in breast cancer cell lines. To be noted: 100 µM MPP+, 100 µmol/L doxorubicin, 72 h. As for the experimental part: Resazurin-Assay: To determine cell viability, cells were seeded at a density of 10,000 cells/well in 96-well multiplates. […] Afterward, 100 µL from each well was placed in a cavity of a 96-well plate, and the fluorescence was determined on a microplate reader (TECAN infinite M200, Tecan GmbH, Crailsheim, Germany) at an excitation wavelength of 530 nm and an emission wavelength of 590 nm.

In another series the target is T1, P-gp (Homo sapiens, UniProt P08183).
T1 construct: expressed in transfected cells; host or cells: MDCKII
Briefly: Transwell assay, MDCKII cells stably expressing P-gp. Format: cell-based. The conditions noted are these: PSC833 10 µmol/L; 100 µmol/L doxorubicin. The method, then: In brief, MDCKII cells stably expressing P-gp or BCRP were seeded on 0.4 µm Transwell® membrane inserts (200.000 cells/insert; Ø6.5 mm, growth area 0.33 cm2) and allowed to differentiate for five days. The integrity of the monolayer was confirmed by monitoring the trans-epithelial electrical resistance (TEER) using the EVOMX system (WPI, Sarasota, FL, USA). […] Every 30 min, the incubation buffer was removed from the receiver compartment and replaced by a freshly preheated buffer for a total time of 2.5 h.

Substrate in series [2]: COc1cccc2c1C(=O)c1c(O)c3c(c(O)c1C2=O)C[C@@](O)(C(=O)CO)C[C@@H]3O[C@H]1C[C@H](N)[C@H](O)[C@H](C)O1
Briefly: cells, lysate or membranes. To be noted: other: MDCKII-OCT3; doxorubicin 0–100 µmol/L; 3 min; mean ± SD; 37.0 °C.

Substrate in series [3]: COc1cccc2c1C(=O)c1c(O)c3c(c(O)c1C2=O)C[C@@](O)(C(=O)CO)C[C@@H]3O[C@H]1C[C@H](N)[C@H](O)[C@H](C)O1

Read-outs that look alike come from different tables or passages of the source.

T1 sequence (P08183 whole entry): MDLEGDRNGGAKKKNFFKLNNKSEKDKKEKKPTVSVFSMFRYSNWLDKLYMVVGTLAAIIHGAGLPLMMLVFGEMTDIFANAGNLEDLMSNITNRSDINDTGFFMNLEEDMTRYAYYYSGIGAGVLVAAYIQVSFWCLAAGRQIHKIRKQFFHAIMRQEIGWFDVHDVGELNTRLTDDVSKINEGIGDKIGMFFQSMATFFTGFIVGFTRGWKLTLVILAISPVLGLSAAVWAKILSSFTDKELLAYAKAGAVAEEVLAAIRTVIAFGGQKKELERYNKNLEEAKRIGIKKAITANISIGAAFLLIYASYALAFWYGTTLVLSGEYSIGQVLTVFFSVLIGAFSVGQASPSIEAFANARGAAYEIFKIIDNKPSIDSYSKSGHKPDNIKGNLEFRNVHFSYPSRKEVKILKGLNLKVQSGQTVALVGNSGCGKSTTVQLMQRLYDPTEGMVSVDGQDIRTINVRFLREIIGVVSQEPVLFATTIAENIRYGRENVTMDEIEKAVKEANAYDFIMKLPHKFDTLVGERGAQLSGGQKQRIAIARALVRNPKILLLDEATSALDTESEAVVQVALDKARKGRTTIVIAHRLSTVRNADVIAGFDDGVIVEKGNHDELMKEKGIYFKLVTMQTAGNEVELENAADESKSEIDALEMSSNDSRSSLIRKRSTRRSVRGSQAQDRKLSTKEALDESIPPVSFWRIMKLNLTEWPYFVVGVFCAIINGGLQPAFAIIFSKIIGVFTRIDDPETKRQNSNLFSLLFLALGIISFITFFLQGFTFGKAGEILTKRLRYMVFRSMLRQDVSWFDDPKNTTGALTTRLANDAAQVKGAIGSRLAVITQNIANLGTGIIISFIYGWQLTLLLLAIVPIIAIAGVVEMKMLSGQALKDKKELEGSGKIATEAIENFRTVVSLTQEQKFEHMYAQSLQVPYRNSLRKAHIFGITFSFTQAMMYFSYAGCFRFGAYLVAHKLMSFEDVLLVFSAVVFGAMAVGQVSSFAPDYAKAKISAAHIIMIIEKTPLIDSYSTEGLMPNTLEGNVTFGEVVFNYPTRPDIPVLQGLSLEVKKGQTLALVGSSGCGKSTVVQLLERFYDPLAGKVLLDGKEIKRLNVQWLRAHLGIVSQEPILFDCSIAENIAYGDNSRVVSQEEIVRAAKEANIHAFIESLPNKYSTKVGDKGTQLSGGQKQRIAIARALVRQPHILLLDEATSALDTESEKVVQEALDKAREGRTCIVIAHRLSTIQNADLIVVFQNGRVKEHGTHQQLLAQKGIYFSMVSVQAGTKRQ

For the molecule `C[n+]1ccc(-c2ccccc2)cc1` [MPP+], in series [1], the “effect of inhibitor on cytotoxic effects of doxorubicin” value was “significantly attenuated”.
As for `C/C=C/C[C@@H](C)C(=O)[C@H]1C(=O)N[C@@H](C(C)C)C(=O)N(C)CC(=O)N(C)[C@@H](CC(C)C)C(=O)N[C@@H](C(C)C)C(=O)N(C)[C@@H](CC(C)C)C(=O)N[C@@H](C)C(=O)N[C@H](C)C(=O)N(C)[C@@H](CC(C)C)C(=O)N(C)[C@@H](CC(C)C)C(=O)N(C)[C@@H](C(C)C)C(=O)N1C` [PSC833], the “effect of inhibitor on P-gp-mediated vectorial transport of doxorubicin” value on P-gp was “markedly reduced”.

B1: OCT3 (Homo sapiens) (protein)
chain: MPSFDEALQRVGEFGRFQRRVFLLLCLTGVTFAFLFVGVVFLGTQPDHYWCRGPSAAALAERCGWSPEEEWNRTAPASRGPEPPERRGRCQRYLLEAANDSASATSALSCADPLAAFPNRSAPLVPCRGGWRYAQAHSTIVSEFDLVCVNAWMLDLTQAILNLGFLTGAFTLGYAADRYGRIVIYLLSCLGVGVTGVVVAFAPNFPVFVIFRFLQGVFGKGTWMTCYVIVTEIVGSKQRRIVGIVIQMFFTLGIIILPGIAYFIPNWQGIQLAITLPSFLFLLYYWVVPESPRWLITRKKGDKALQILRRIAKCNGKYLSSNYSEITVTDEEVSNPSFLDLVRTPQMRKCTLILMFAWFTSAVVYQGLVMRLGIIGGNLYIDFFISGVVELPGALLILLTIERLGRRLPFAASNIVAGVACLVTAFLPEGIAWLRTTVATLGRLGITMAFEIVYLVNSELYPTTLRNFGVSLCSGLCDFGGIIAPFLLFRLAAVWLELPLIIFGILASICGGLVMLLPETKGIALPETVDDVEKLGSPHSCKCGRNKKTPVSRSHL
As for B1, the Michaelis constant (Km) in series [2] worked out at 13.0 ± 10.7 µM.

B2: OCT2 (Homo sapiens) (protein)
chain: MPTTVDDVLEHGGEFHFFQKQMFFLLALLSATFAPIYVGIVFLGFTPDHRCRSPGVAELSLRCGWSPAEELNYTVPGPGPAGEASPRQCRRYEVDWNQSTFDCVDPLASLDTNRSRLPLGPCRDGWVYETPGSSIVTEFNLVCANSWMLDLFQSSVNVGFFIGSMSIGYIADRFGRKLCLLTTVLINAAAGVLMAISPTYTWMLIFRLIQGLVSKAGWLIGYILITEFVGRRYRRTVGIFYQVAYTVGLLVLAGVAYALPHWRWLQFTVSLPNFFFLLYYWCIPESPRWLISQNKNAEAMRIIKHIAKKNGKSLPASLQRLRLEEETGKKLNPSFLDLVRTPQIRKHTMILMYNWFTSSVLYQGLIMHMGLAGDNIYLDFFYSALVEFPAAFMIILTIDRIGRRYPWAASNMVAGAACLASVFIPGDLQWLKIIISCLGRMGITMAYEIVCLVNAELYPTFIRNLGVHICSSMCDIGGIITPFLVYRLTNIWLELPLMVFGVLGLVAGGLVLLLPETKGKALPETIEEAENMQRPRKNKEKMIYLQVQKLDIPLN
On to B2, for which the Km in series [3] was found to be 76.1 ± 42.8 µM.

B3: OCT1 (Homo sapiens) (protein)
chain: MPTVDDILEQVGESGWFQKQAFLILCLLSAAFAPICVGIVFLGFTPDHHCQSPGVAELSQRCGWSPAEELNYTVPGLGPAGEAFLGQCRRYEVDWNQSALSCVDPLASLATNRSHLPLGPCQDGWVYDTPGSSIVTEFNLVCADSWKLDLFQSCLNAGFLFGSLGVGYFADRFGRKLCLLGTVLVNAVSGVLMAFSPNYMSMLLFRLLQGLVSKGNWMAGYTLITEFVGSGSRRTVAIMYQMAFTVGLVALTGLAYALPHWRWLQLAVSLPTFLFLLYYWCVPESPRWLLSQKRNTEAIKIMDHIAQKNGKLPPADLKMLSLEEDVTEKLSPSFADLFRTPRLRKRTFILMYLWFTDSVLYQGLILHMGATSGNLYLDFLYSALVEIPGAFIALITIDRVGRIYPMAMSNLLAGAACLVMIFISPDLHWLNIIIMCVGRMGITIAIQMICLVNAELYPTFVRNLGVMVCSSLCDIGGIITPFIVFRLREVWQALPLILFAVLGLLAAGVTLLLPETKGVALPETMKDAENLGRKAKPKENTIYLKVQTSEPSGT
In the case of B3, the Km in series [3] was 4.66 ± 3.43 µM.

The record behind these values is publication PMC8745601 (International Journal of Molecular Sciences, 2021).
